From US20080064629A1, “Amphiregulin as a Protective Agent in Acute Hepatic Injury” (priority 2004, published 2008)

Experiments:
isolated rat hepatocytes = assay: TGFα and CT-1 gene expression in cultured rat hepatocytes treated with AR; format: cell-based; conditions: AR treatment, different periods of time
Description: Hepatocytes were isolated from male Wistar rats (150 g) and C57/BL6 mice (20 g) by perfusion with collagenase (Gibco-BRL, Paisley, UK) as described elsewhere [(18), (20)]. Cells (5×10^5 cells per well) were plated onto 6-well plates coated with collagen (type I collagen, Collaborative Biomedical, Bedford, Mass., USA). Cultures were maintained in MEM medium supplemented with 10% fetal calf serum (FCS), non-essential amino acids, glutamine 2 mM and antibiotics (all supplied by Gibco-BRL). After 2 h of incubation, the medium was removed and cells were again cultured in the same medium with 5% FCS. […]
Total RNA was extracted using TRI reagent (Sigma). […] PCR products were subjected to electrophoresis in 2% agarose gels, followed by staining with ethidium bromide and quantification using Molecular Analyst software (Bio-Rad, Hercules, Calif., USA). […]
Real time PCR was performed using an iCycler (BioRad) and iQ SYBR Green Supermix (Bio-Rad). In order to monitor the specificity of final PCR products, the latter were analysed by fusion curves and electrophoresis. The amount of each transcript was expressed as n-fold the difference versus expression of the reference gene (β-actin)(2^ΔCt, where ΔCt represents the difference in threshold cycle between target genes and control gene).

male C57/BL6 mice = assay: Acute liver damage induced by CCl4 in mice, treatment with AR; format: in vivo; conditions: AR 9.5 μg/mouse i.p. 0.5 h before and 12 h after CCl4
Description: The experiments were carried out in compliance with the guidelines of the University of Navarra relating to the use of laboratory animals. Cirrhosis was induced with CCl4 in male Wistar rats as described elsewhere [(16) Castilla-Cortazar, I., Garcia, M., Muguerza, B., Quiroga, J., Perez, R., Santidrian, S., Prieto, J. 1997. Hepatoprotective effects of insulin-like growth factor I in rats with carbon tetrachloride-induced cirrhosis. Gastroenterology 113:1682-1691). Two-thirds PH or sham operations were performed on male Wistar rats (150 g) and male C57/BL6 mice (20 g) according to the method of Higgins and Andersen [(17) Higgins, G. M., Andersen, R. M. 1931. Experimental pathology of liver: restoration of liver of the white rat following partial surgical removal. Arch. Pathol. 12:186-202. (18) Latasa, M. U., Boukaba, A., García-Trevijano, E. R., Torres, L., Rodríguez, J. L., Caballería, J., Lu, S. C., López-Rodas, G., Franco, L., Mato, J. M., et al. 2001. Hepatocyte growth factor induces MAT2A expression and histone acetylation in rat hepatocytes. Role in liver regeneration. FASEB J. 10.1096/fj.00-0556fje. (19) Chen, L., Zeng, Y., Yang, H., Lee, T. D., French, S. W., Corrales, F. J., García-Trevijano, E. R., Avila, M. A., Mato, J. M., and Lu, S. C. 2004. Impaired liver regeneration in mice lacking methionine adenosyltransferase 1A. FASEB J. 18: 914-916]. Following sedation, in the sham operated animals the liver was exposed and then returned to the abdominal cavity. […] At the indicated timepoints, mice were subjected to blood sampling and the sera were analysed for alanine and aspartate aminotransferase (ALT and AST) as described elsewhere [(16) and (21) Lasarte, J. J., Sarobe, P., Boya, P., Casares, N., Arribillaga, L., López-Díaz of Cerio, A., Gorraiz, M., Borrás-Cuesta, F., Prieto, J. 2003. […]

[1] = 24 h after injection of CCl4 (1 μl/g i.p.)

B1: amphiregulin (protein)
chain: SVRVEQVVKPPQNKTESENTSDKPKRKKKGGKNGKNRRNRKKKNPCNAEFQNFCIHGECKYIEHLEAVTCKCQQEYFGERCGEKSMKTHSMIDSSLSK
notes: polypeptide growth factor belonging to the EGF family, ligand of EGF receptor; human recombinant AR (Sigma) used
With B1 as the molecule, how does the “levels of mRNA encoding CT-1” value (isolated rat hepatocytes) read?
The value was “increased”.

What about the “levels of mRNA encoding TGFα” value (isolated rat hepatocytes) of the same molecule?
The value was “increased”.

What about the “degree of histological damage (liver, H&E)” value (male C57/BL6 mice; 24 h after CCl4) of the same molecule?
The value was “decreased”.

And the “serum level of ALT” value (male C57/BL6 mice; [1])?
Its value is “clearly attenuated”.

And the “serum level of AST” value (male C57/BL6 mice; [1])?
The value was “clearly attenuated”.
